Km and kcat data for one substance are collected here from patent US6953577B2, “Human methionine aminopeptidase type 3” (Pharmacia Corporation, priority 1999, dated 2005).

The test system of this data set is CSCC[C@H](N)C(=O)N[C@@H](C)C(=O)N[C@@H](CO)C(=O)O. The data set can be described thus: purified protein, by the assay type. The note with it: other: hydrolysis of methionine from MAS peptide substrate; pH 7.5.

Method: Hydrogen peroxide, produced by the L-amino acid oxidase reaction, was measured by monitoring the formation of resorufin from Amplex Red in a reaction catalyzed by of horseradish peroxidase. […] The reaction was performed in a 96-well plate format at ambient temperature using the following assay buffer: 20 mM HEPES-Na pH 7.5, 100 mM NaCl, 0.1 mM CoCl2 containing 100 μM Amplex Red, 0.15 U/ml L-amino acid oxidase, 0.5 U/ml horseradish peroxidase.
The IC50 values were determined under conditions in which enzyme concentration and reaction time were linear.

With “recombinant human MetAP-1 (Homo sapiens)”, the Km – broadly, the substrate concentration at which the rate is half of its maximum – is 8.5 mM; the kcat (in general, the number of substrate molecules converted per active site and unit of time at saturation) stood at 0.75 s⁻¹.
